Literature values as cited in article PMC12731121.

How the values were obtained:
MIF (Homo sapiens) = MIF (Homo sapiens) (UniProt P14174)
[1] = biological target: D-dopachrome tautomerase (MIF-2) (Homo sapiens) (UniProt P30046)
[2] = biological target: Cathepsin S (Homo sapiens) (UniProt P25774)
[3] = biological target: Cathepsin H (Homo sapiens) (UniProt P09668)
[4] = biological target: Cathepsin L (Homo sapiens) (UniProt P07711)
Chain of Cathepsin L (Homo sapiens) (P07711 292-333): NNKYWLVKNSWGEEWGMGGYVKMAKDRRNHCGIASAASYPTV

Chain of CD74 p41 thyropin domain (P04233 210-271): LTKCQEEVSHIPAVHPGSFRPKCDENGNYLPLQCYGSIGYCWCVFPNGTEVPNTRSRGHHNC
Chain of CD74 (P04233 73-296): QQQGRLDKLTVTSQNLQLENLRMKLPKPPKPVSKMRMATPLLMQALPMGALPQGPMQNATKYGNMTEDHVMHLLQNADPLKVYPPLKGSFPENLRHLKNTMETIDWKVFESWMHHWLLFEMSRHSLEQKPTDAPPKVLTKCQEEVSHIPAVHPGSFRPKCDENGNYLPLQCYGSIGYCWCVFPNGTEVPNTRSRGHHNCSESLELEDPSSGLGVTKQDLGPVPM
Chain of Cathepsin H (Homo sapiens) (P09668 whole entry, looked up): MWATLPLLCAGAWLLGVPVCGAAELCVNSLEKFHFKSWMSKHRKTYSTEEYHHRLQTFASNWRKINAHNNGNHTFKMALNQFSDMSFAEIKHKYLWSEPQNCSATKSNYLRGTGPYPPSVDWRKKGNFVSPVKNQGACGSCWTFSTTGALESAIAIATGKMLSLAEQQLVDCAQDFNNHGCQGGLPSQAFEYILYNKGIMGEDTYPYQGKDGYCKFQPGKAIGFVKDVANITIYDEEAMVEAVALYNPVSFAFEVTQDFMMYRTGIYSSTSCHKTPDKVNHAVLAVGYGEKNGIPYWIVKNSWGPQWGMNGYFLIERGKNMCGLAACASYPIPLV
Chain of MIF (Homo sapiens) (P14174 2-115): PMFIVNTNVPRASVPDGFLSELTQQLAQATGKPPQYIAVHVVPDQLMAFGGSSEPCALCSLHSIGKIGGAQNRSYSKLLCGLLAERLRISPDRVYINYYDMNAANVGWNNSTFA
Chain of D-dopachrome tautomerase (MIF-2) (Homo sapiens) (P30046 2-118): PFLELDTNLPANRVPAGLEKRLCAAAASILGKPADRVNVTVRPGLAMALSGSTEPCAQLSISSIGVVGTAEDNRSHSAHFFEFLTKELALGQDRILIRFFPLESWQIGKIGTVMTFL
Chain of Cathepsin S (Homo sapiens) (P25774 115-331): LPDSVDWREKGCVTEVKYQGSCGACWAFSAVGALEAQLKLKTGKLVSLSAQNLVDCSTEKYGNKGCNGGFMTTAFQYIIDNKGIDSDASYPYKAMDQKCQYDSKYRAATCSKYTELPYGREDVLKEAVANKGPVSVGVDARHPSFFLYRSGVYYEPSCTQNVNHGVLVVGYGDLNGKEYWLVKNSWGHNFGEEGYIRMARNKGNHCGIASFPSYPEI

Substance | Kd (MIF (Homo sapiens)) [nM] | Kd [1] [nM] | Ki [2] [nM] | Ki [3] [nM] | Ki [4] [nM]
CD74 (from UniProt P04233) | 1.4 | 5.4 |  |  | 
CD74 p41 thyropin domain (from UniProt P04233) |  |  | 208 | 5.3 | 0.0017
